According to patent WO2023190851A1 (dated 2023):

Target: SARS-CoV-2 Spike RBD, His Tag (BA.2/Omicron) (SARS-CoV-2, Omicron BA.2 lineage, UniProt P0DTC2 319-537)

B1: natural human IgG antibody (HIG001677) (antibody, V domains shown)
VH: EVQLVESGGGLVQPGGSLRLACAASGLTVSRNYMNWVRQAPGKGLEWVSLVYPGGSTFYADSVKGRFTISRDNSKNTLYLQMNSLRADDTAVYYCAREVRGRGDYWGQGTLVTVST
VL: DIQMTQSPSSLSASVGDRVTITCQASQDINKYLNWYQQKPGKAPKLLIYDASNLEPGVPSRFSGSGSGTDFTFTISNLQPEDIATYYCQNYDNLPQTFGQGTRLEIKR
**Q.** B1 was tested. Which Kd did it give?
**A.** 8.58 nM
